According to PMC6783867:

Target: 10th and 11th cadherin repeat domains of the Plutella xylostella cadherin (PxCR10–11), GST-tagged (Plutella xylostella)
Assay: BLI; Octet Red 96; GST-tagged PxCR10–11 loaded onto anti-GST biosensors; toxin 38.5 to 576.9 nM in solution; 400 s association, 400 s dissociation; 10 mM GSH, 50 mM Tris, pH 8.0; 1:1 binding model

Substance	Kd [nM]
Cry2Ab–AVM bioconjugate (Cry2Ab30 conjugated with 4''-O-succinyl avermectin)	3.44
Cry2Ab–AVMd (Cry2Ab30 conjugated with 4'',5-O-succinyl avermectin)	71.9
